T1: DFNB31_3, Q9P202
T1 sequence (Q9P202 811-907, limits assumed, looked up): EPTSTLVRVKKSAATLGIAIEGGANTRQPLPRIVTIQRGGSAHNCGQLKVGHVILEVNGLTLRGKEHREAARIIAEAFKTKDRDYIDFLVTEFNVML

T2: TJP3_3, O95049
T2 sequence (O95049 375-456, limits assumed, looked up): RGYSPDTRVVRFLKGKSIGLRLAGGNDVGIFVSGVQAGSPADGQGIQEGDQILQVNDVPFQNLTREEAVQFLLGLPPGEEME

T3: SHANK1, Q9Y566
T3 sequence (Q9Y566 658-767, limits assumed, looked up): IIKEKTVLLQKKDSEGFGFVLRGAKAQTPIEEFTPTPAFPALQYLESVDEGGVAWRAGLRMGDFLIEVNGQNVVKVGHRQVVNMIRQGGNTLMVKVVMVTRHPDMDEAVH

T4: MPP2, Q14168
T4 sequence (Q14168 180-250, limits assumed, looked up): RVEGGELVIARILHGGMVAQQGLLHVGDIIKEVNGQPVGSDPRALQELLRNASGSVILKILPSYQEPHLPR

T5: PCLO, Q9Y6V0
T5 sequence (Q9Y6V0 4491-4600, limits assumed, looked up): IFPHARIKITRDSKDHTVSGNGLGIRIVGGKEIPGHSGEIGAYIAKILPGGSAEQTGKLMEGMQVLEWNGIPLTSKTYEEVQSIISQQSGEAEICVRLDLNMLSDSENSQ

T6: NHERF3_3, Q5T2W1
T6 sequence (Q5T2W1 238-333, limits assumed, looked up): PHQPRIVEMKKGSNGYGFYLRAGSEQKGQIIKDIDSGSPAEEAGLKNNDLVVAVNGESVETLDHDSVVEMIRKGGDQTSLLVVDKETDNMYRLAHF

T7: TIAM2, Q8IVF5
T7 sequence (Q8IVF5 885-986, limits assumed, looked up): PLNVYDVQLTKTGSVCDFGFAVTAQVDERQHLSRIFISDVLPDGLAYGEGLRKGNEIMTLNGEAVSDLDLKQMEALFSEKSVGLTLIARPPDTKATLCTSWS

T8: NHERF3_1, Q5T2W1
T8 sequence (Q5T2W1 4-100, limits assumed, looked up): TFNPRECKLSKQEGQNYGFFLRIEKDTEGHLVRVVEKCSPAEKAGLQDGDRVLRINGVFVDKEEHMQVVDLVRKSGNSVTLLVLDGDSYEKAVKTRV

T9: GRIP1_5, Q9Y3R0
T9 sequence (Q9Y3R0 568-668, limits assumed, looked up): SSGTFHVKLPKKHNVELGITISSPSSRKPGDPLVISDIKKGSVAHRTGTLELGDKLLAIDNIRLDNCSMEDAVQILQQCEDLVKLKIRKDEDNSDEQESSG

T10: LNX2_2, Q8N448
T10 sequence (Q8N448 334-432, limits assumed, looked up): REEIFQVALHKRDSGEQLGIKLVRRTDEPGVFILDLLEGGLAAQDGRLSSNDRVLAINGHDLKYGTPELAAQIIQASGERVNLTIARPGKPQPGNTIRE


Tests used:
Assay in all cases: holdup assay
Design in all cases: key: below the threshold = too weak to quantify, mostly under pKd 3.1 to 4
Conditions in all cases: plain residues with an end cap or a label only (N-terminal biotin on a linker: ado-ado)
MAGI2_6, Q86UL8 = biological target: MAGI2_6, Q86UL8
Chain of MAGI2_6, Q86UL8 (Q86UL8 1141-1229): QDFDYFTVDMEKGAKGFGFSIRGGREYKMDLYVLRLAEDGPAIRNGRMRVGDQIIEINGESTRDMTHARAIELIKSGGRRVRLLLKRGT

Inadl_8, Q8NI35 = biological target: Inadl_8, Q8NI35
Chain of Inadl_8, Q8NI35 (Q8NI35 1425-1530): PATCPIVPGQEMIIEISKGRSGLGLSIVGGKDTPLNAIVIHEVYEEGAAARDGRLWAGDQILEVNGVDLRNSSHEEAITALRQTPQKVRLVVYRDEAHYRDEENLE

DLG5_1, Q8TDM6 = biological target: DLG5_1, Q8TDM6
Chain of DLG5_1, Q8TDM6 (Q8TDM6 617-713): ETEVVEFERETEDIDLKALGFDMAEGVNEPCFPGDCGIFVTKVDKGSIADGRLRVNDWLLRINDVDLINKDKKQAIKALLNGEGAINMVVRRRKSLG

DFNB31_3, Q9P202 = biological target: T1, DFNB31_3, Q9P202
GRID2IP_1, A4D2P6 = biological target: GRID2IP_1, A4D2P6
Chain of GRID2IP_1, A4D2P6 (A4D2P6 1-87): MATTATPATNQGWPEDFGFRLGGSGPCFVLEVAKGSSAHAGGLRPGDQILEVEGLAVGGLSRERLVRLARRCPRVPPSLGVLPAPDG

MAGI2_2, Q86UL8 = biological target: MAGI2_2, Q86UL8
Chain of MAGI2_2, Q86UL8 (Q86UL8 410-522): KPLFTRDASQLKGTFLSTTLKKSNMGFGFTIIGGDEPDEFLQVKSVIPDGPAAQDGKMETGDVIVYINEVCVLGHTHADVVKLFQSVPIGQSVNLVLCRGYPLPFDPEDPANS

Inadl_6, Q8NI35 = biological target: Inadl_6, Q8NI35
Chain of Inadl_6, Q8NI35 (Q8NI35 1058-1167): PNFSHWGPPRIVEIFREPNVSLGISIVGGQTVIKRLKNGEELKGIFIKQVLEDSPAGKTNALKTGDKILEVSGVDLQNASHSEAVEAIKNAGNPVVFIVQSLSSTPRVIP

TJP3_3, O95049 = biological target: T2, TJP3_3, O95049
TJP1_3, Q07157 = biological target: TJP1_3, Q07157
Chain of TJP1_3, Q07157 (Q07157 416-512): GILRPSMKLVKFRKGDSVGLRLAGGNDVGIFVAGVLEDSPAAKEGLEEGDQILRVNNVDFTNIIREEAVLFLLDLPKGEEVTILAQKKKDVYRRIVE

SHANK1, Q9Y566 = biological target: T3, SHANK1, Q9Y566
MPP2, Q14168 = biological target: T4, MPP2, Q14168
PCLO, Q9Y6V0 = biological target: T5, PCLO, Q9Y6V0
IL16_1, Q14005 = biological target: IL16_1, Q14005
Chain of IL16_1, Q14005 (Q14005 210-306): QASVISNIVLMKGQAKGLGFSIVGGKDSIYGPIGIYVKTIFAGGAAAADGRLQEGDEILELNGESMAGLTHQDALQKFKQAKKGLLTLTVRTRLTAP

NHERF3_3, Q5T2W1 = biological target: T6, NHERF3_3, Q5T2W1
DLG4_2, P78352 = biological target: DLG4_2, P78352
Chain of DLG4_2, P78352 (P78352 155-259): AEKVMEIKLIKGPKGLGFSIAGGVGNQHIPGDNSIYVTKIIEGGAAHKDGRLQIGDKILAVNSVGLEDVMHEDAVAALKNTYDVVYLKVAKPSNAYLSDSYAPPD

TIAM2, Q8IVF5 = biological target: T7, TIAM2, Q8IVF5
PTPN3, P26045 = biological target: PTPN3, P26045
Chain of PTPN3, P26045 (P26045 505-587): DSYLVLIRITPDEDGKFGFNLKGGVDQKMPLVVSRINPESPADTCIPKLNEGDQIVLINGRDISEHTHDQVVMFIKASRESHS

NHERF3_1, Q5T2W1 = biological target: T8, NHERF3_1, Q5T2W1
GORASP1, Q9BQQ3 = biological target: GORASP1, Q9BQQ3
Chain of GORASP1, Q9BQQ3 (Q9BQQ3 1-208): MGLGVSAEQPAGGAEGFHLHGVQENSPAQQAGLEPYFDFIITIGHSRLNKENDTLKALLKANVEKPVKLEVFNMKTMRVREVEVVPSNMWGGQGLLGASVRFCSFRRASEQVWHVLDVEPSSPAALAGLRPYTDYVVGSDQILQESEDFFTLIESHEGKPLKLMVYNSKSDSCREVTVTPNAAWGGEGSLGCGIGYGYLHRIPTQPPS

GRIP1_5, Q9Y3R0 = biological target: T9, GRIP1_5, Q9Y3R0
LNX2_2, Q8N448 = biological target: T10, LNX2_2, Q8N448
DLG4_1, P78352 = biological target: DLG4_1, P78352
Chain of DLG4_1, P78352 (P78352 62-152): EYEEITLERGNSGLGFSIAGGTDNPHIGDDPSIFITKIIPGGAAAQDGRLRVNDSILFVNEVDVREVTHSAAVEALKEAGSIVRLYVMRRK

NOS1, P29475 = biological target: NOS1, P29475
Chain of NOS1, P29475 (P29475 9-101): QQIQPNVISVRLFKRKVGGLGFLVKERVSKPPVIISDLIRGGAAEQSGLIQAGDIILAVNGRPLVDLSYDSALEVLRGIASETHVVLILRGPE

PICK1, Q9NRD5 = biological target: PICK1, Q9NRD5
Chain of PICK1, Q9NRD5 (Q9NRD5 17-115): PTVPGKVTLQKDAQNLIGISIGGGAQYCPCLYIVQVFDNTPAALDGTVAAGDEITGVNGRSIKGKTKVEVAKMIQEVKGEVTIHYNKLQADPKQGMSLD

DLG2_2, Q15700 = biological target: DLG2_2, Q15700
Chain of DLG2_2, Q15700 (Q15700 189-283): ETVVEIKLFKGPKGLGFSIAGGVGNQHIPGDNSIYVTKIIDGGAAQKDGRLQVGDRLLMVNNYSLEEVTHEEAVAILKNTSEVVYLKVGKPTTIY

NHERF4_1, Q86UT5-2 = biological target: NHERF4_1, Q86UT5-2
Chain of NHERF4_1, Q86UT5-2 (Q86UT5 other isoform, or with tags, fused parts or gaps): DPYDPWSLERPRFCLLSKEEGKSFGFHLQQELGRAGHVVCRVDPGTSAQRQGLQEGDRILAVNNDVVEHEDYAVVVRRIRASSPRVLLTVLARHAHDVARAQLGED

FRMPD2_3, Q68DX3 = biological target: FRMPD2_3, Q68DX3
Chain of FRMPD2_3, Q68DX3 (Q68DX3 1073-1166): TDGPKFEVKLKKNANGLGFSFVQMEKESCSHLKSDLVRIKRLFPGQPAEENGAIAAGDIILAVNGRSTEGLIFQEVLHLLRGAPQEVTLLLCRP

pKd (MAGI2_6, Q86UL8)	pKd (Inadl_8, Q8NI35)	pKd (DLG5_1, Q8TDM6)	pKd (DFNB31_3, Q9P202)	pKd (GRID2IP_1, A4D2P6)	pKd (MAGI2_2, Q86UL8)	pKd (Inadl_6, Q8NI35)	pKd (TJP3_3, O95049)	pKd (TJP1_3, Q07157)	pKd (SHANK1, Q9Y566)	pKd (MPP2, Q14168)	pKd (PCLO, Q9Y6V0)	pKd (IL16_1, Q14005)	pKd (NHERF3_3, Q5T2W1)	pKd (DLG4_2, P78352)	pKd (TIAM2, Q8IVF5)	pKd (PTPN3, P26045)	pKd (NHERF3_1, Q5T2W1)	pKd (GORASP1, Q9BQQ3)	pKd (GRIP1_5, Q9Y3R0)	Binder	other results
4.9	below the threshold	below the threshold	5.34	below the threshold	3.57	5.68	4.15	below the threshold	5.29	3.62	below the threshold	below the threshold	4.12	3.54	3.65	4.74	5.05	5	below the threshold	NKSEPFLTWL [WWTR1, Q9GZV5]	pKd (LNX2_2, Q8N448): 4.44; pKd (DLG4_1, P78352): 3.49; pKd (NOS1, P29475): 4.05; pKd (PICK1, Q9NRD5): below the threshold; pKd (DLG2_2, Q15700): below the threshold; pKd (NHERF4_1, Q86UT5-2): 4.46; pKd (FRMPD2_3, Q68DX3): below the threshold
below the threshold	below the threshold	below the threshold	3.81	below the threshold	3.6	3.54	3.69	below the threshold	below the threshold	4.36	below the threshold	below the threshold	below the threshold	3.61	4.23	4.16	3.69	4.33	below the threshold	GDSSRKEYFI [GYPC, P04921]	pKd (LNX2_2, Q8N448): below the threshold; pKd (DLG4_1, P78352): below the threshold; pKd (NOS1, P29475): 3.64; pKd (PICK1, Q9NRD5): below the threshold; pKd (DLG2_2, Q15700): below the threshold; pKd (NHERF4_1, Q86UT5-2): below the threshold; pKd (FRMPD2_3, Q68DX3): 3.76
3.8	below the threshold	below the threshold	below the threshold	below the threshold	3.64	3.83	below the threshold	below the threshold	4.17	below the threshold	below the threshold	below the threshold	below the threshold	3.83	below the threshold	4.9	5.29	below the threshold	below the threshold	SRPHTNETSL [MCC, P23508]	pKd (LNX2_2, Q8N448): below the threshold; pKd (DLG4_1, P78352): below the threshold; pKd (NOS1, P29475): below the threshold; pKd (PICK1, Q9NRD5): below the threshold; pKd (DLG2_2, Q15700): below the threshold; pKd (NHERF4_1, Q86UT5-2): 4.12; pKd (FRMPD2_3, Q68DX3): below the threshold
below the threshold	3.84	below the threshold	below the threshold	below the threshold	below the threshold	below the threshold	3.82	below the threshold	below the threshold	below the threshold	below the threshold	below the threshold	below the threshold	3.79	4.1	below the threshold	5.34	4.55	below the threshold	PSVYSRSQYV [CLDN8, P56748]	pKd (LNX2_2, Q8N448): 4.66; pKd (DLG4_1, P78352): below the threshold; pKd (NOS1, P29475): 3.99; pKd (PICK1, Q9NRD5): below the threshold; pKd (DLG2_2, Q15700): below the threshold; pKd (NHERF4_1, Q86UT5-2): 4.03; pKd (FRMPD2_3, Q68DX3): below the threshold
below the threshold	below the threshold	below the threshold	3.55	below the threshold	below the threshold	below the threshold	below the threshold	below the threshold	below the threshold	below the threshold	below the threshold	below the threshold	below the threshold	3.54	4.24	below the threshold	below the threshold	below the threshold	below the threshold	QLGSPTADLA [SIPA1, Q96FS4]	pKd (LNX2_2, Q8N448): below the threshold; pKd (DLG4_1, P78352): below the threshold; pKd (NOS1, P29475): below the threshold; pKd (PICK1, Q9NRD5): below the threshold; pKd (DLG2_2, Q15700): below the threshold; pKd (NHERF4_1, Q86UT5-2): below the threshold; pKd (FRMPD2_3, Q68DX3): below the threshold
